Measurements published in patent US20170266254A1 (AILERON THERAPEUTICS, published 2017).
Substitutions are numbered along the chain they refer to. Bridges are numbered along the chain shown (N, C = ends). [ ]: non-standard residue; d: D form. S5 = C=CCCC[C@](C)(N)C(=O)O

T1: C-terminally 6x Histidine-tagged Beta-Catenin (aa 134-668, 59 KD) (UniProt P35222 134-668)
T1 construct: range 134-668; Armadillo repeat region
T1 sequence: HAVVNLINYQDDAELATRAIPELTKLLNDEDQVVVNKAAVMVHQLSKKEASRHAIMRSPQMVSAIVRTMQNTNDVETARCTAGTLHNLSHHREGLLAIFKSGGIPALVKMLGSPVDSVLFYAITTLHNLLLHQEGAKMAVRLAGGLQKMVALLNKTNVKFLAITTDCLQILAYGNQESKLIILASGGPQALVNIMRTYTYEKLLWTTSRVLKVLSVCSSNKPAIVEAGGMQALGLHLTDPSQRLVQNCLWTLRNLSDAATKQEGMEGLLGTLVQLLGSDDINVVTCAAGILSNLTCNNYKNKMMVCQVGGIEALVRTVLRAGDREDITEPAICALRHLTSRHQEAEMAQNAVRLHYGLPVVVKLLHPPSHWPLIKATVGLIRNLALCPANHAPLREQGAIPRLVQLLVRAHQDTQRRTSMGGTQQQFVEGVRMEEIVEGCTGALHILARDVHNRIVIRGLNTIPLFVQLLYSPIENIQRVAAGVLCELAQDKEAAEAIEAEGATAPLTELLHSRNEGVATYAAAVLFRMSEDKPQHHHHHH

B1: SP23 (peptide)
peptide: Ac-SAE[S5]DLA[S5]VKSSLVNESEKR-NH2
modifications: staple 4-8
SMILES: CC(=O)N[C@@H](CO)C(=O)N[C@@H](C)C(=O)N[C@@H](CCC(=O)O)C(=O)N[C@@]1(C)CCCC=CCCC[C@@](C)(C(=O)N[C@H](C(=O)N[C@@H](CCCCN)C(=O)N[C@@H](CO)C(=O)N[C@@H](CO)C(=O)N[C@@H](CC(C)C)C(=O)N[C@H](C(=O)N[C@@H](CC(N)=O)C(=O)N[C@@H](CCC(=O)O)C(=O)N[C@@H](CO)C(=O)N[C@@H](CCC(=O)O)C(=O)N[C@@H](CCCCN)C(=O)N[C@@H](CCCNC(=N)N)C(N)=O)C(C)C)C(C)C)NC(=O)[C@H](C)NC(=O)[C@H](CC(C)C)NC(=O)[C@H](CC(=O)O)NC1=O
B2: SP37 (peptide)
peptide: LGANDELISFADEGAQEEKSSNNSSAARDLADVKSSLV
modifications: not fully specified; N-terminal acetyl; C-terminal amide; $ = (S)-alpha-(2'-pentenyl)alanine at positions 11 and 15 (first crosslink) and 27 and 31 (second crosslink), each pair joined by an all-carbon crosslinker with one double bond
B3: SP24 (peptide)
peptide: Ac-LGANAELISFKDEGEQEEKSSENSSAERDLADVKSSLV-NH2
notes: Linear, not crosslinked; differs from SP14 by Asp to Ala at the fifth residue of the peptide
B4: SP25 (peptide)
peptide: Ac-LGANAELISFKDEGEQEEKSSENSSAERDLADAKSSAV-NH2
notes: Linear, not crosslinked; differs from SP14 by Ala at peptide positions 5, 33 and 37
B5: SP26 (peptide)
peptide: B2 peptide with A27E
modifications: not fully specified; N-terminal acetyl; C-terminal amide; $ = (S)-alpha-(2'-pentenyl)alanine at positions 11 and 15, joined by an all-carbon crosslinker with one double bond
B6: SP27 (peptide)
peptide: Ac-LGANDELISFK[S5]EGE[S5]EEKSSNNSSAERDLADVKSSLV-NH2
modifications: staple 12-16
SMILES: CC[C@H](C)[C@H](NC(=O)[C@H](CC(C)C)NC(=O)[C@H](CCC(=O)O)NC(=O)[C@H](CC(=O)O)NC(=O)[C@H](CC(N)=O)NC(=O)[C@H](C)NC(=O)CNC(=O)[C@H](CC(C)C)NC(C)=O)C(=O)N[C@@H](CO)C(=O)N[C@@H](Cc1ccccc1)C(=O)N[C@@H](CCCCN)C(=O)N[C@@]1(C)CCCC=CCCC[C@@](C)(C(=O)N[C@@H](CCC(=O)O)C(=O)N[C@@H](CCC(=O)O)C(=O)N[C@@H](CCCCN)C(=O)N[C@@H](CO)C(=O)N[C@@H](CO)C(=O)N[C@@H](CC(N)=O)C(=O)N[C@@H](CC(N)=O)C(=O)N[C@@H](CO)C(=O)N[C@@H](CO)C(=O)N[C@@H](C)C(=O)N[C@@H](CCC(=O)O)C(=O)N[C@@H](CCCNC(=N)N)C(=O)N[C@@H](CC(=O)O)C(=O)N[C@@H](CC(C)C)C(=O)N[C@@H](C)C(=O)N[C@@H](CC(=O)O)C(=O)N[C@H](C(=O)N[C@@H](CCCCN)C(=O)N[C@@H](CO)C(=O)N[C@@H](CO)C(=O)N[C@@H](CC(C)C)C(=O)N[C@H](C(N)=O)C(C)C)C(C)C)NC(=O)[C@H](CCC(=O)O)NC(=O)CNC(=O)[C@H](CCC(=O)O)NC1=O
B7: SP28 (peptide)
peptide: Ac-LGANDELISFKDEG[S5]QEE[S5]SSNNSSAERDLADVKSSLV-NH2
modifications: staple 15-19
SMILES: CC[C@H](C)[C@H](NC(=O)[C@H](CC(C)C)NC(=O)[C@H](CCC(=O)O)NC(=O)[C@H](CC(=O)O)NC(=O)[C@H](CC(N)=O)NC(=O)[C@H](C)NC(=O)CNC(=O)[C@H](CC(C)C)NC(C)=O)C(=O)N[C@@H](CO)C(=O)N[C@@H](Cc1ccccc1)C(=O)N[C@@H](CCCCN)C(=O)N[C@@H](CC(=O)O)C(=O)N[C@@H](CCC(=O)O)C(=O)NCC(=O)N[C@@]1(C)CCCC=CCCC[C@@](C)(C(=O)N[C@@H](CO)C(=O)N[C@@H](CO)C(=O)N[C@@H](CC(N)=O)C(=O)N[C@@H](CC(N)=O)C(=O)N[C@@H](CO)C(=O)N[C@@H](CO)C(=O)N[C@@H](C)C(=O)N[C@@H](CCC(=O)O)C(=O)N[C@@H](CCCNC(=N)N)C(=O)N[C@@H](CC(=O)O)C(=O)N[C@@H](CC(C)C)C(=O)N[C@@H](C)C(=O)N[C@@H](CC(=O)O)C(=O)N[C@H](C(=O)N[C@@H](CCCCN)C(=O)N[C@@H](CO)C(=O)N[C@@H](CO)C(=O)N[C@@H](CC(C)C)C(=O)N[C@H](C(N)=O)C(C)C)C(C)C)NC(=O)[C@H](CCC(=O)O)NC(=O)[C@H](CCC(=O)O)NC(=O)[C@H](CCC(N)=O)NC1=O
B8: SP29 (peptide)
peptide: Ac-LGANDELISFKDEGE[S5]EEK[S5]SNNSSAERDLADVKSSLV-NH2
modifications: staple 16-20
SMILES: CC[C@H](C)[C@H](NC(=O)[C@H](CC(C)C)NC(=O)[C@H](CCC(=O)O)NC(=O)[C@H](CC(=O)O)NC(=O)[C@H](CC(N)=O)NC(=O)[C@H](C)NC(=O)CNC(=O)[C@H](CC(C)C)NC(C)=O)C(=O)N[C@@H](CO)C(=O)N[C@@H](Cc1ccccc1)C(=O)N[C@@H](CCCCN)C(=O)N[C@@H](CC(=O)O)C(=O)N[C@@H](CCC(=O)O)C(=O)NCC(=O)N[C@@H](CCC(=O)O)C(=O)N[C@@]1(C)CCCC=CCCC[C@@](C)(C(=O)N[C@@H](CO)C(=O)N[C@@H](CC(N)=O)C(=O)N[C@@H](CC(N)=O)C(=O)N[C@@H](CO)C(=O)N[C@@H](CO)C(=O)N[C@@H](C)C(=O)N[C@@H](CCC(=O)O)C(=O)N[C@@H](CCCNC(=N)N)C(=O)N[C@@H](CC(=O)O)C(=O)N[C@@H](CC(C)C)C(=O)N[C@@H](C)C(=O)N[C@@H](CC(=O)O)C(=O)N[C@H](C(=O)N[C@@H](CCCCN)C(=O)N[C@@H](CO)C(=O)N[C@@H](CO)C(=O)N[C@@H](CC(C)C)C(=O)N[C@H](C(N)=O)C(C)C)C(C)C)NC(=O)[C@H](CCCCN)NC(=O)[C@H](CCC(=O)O)NC(=O)[C@H](CCC(=O)O)NC1=O
B9: SP30 (peptide)
peptide: Ac-LGANDELISFKDEGEQEEKSSENSSA[S5]RDL[S5]DVKSSLV-NH2
modifications: staple 27-31
SMILES: CC[C@H](C)[C@H](NC(=O)[C@H](CC(C)C)NC(=O)[C@H](CCC(=O)O)NC(=O)[C@H](CC(=O)O)NC(=O)[C@H](CC(N)=O)NC(=O)[C@H](C)NC(=O)CNC(=O)[C@H](CC(C)C)NC(C)=O)C(=O)N[C@@H](CO)C(=O)N[C@@H](Cc1ccccc1)C(=O)N[C@@H](CCCCN)C(=O)N[C@@H](CC(=O)O)C(=O)N[C@@H](CCC(=O)O)C(=O)NCC(=O)N[C@@H](CCC(=O)O)C(=O)N[C@@H](CCC(N)=O)C(=O)N[C@@H](CCC(=O)O)C(=O)N[C@@H](CCC(=O)O)C(=O)N[C@@H](CCCCN)C(=O)N[C@@H](CO)C(=O)N[C@@H](CO)C(=O)N[C@@H](CCC(=O)O)C(=O)N[C@@H](CC(N)=O)C(=O)N[C@@H](CO)C(=O)N[C@@H](CO)C(=O)N[C@@H](C)C(=O)N[C@@]1(C)CCCC=CCCC[C@@](C)(C(=O)N[C@@H](CC(=O)O)C(=O)N[C@H](C(=O)N[C@@H](CCCCN)C(=O)N[C@@H](CO)C(=O)N[C@@H](CO)C(=O)N[C@@H](CC(C)C)C(=O)N[C@H](C(N)=O)C(C)C)C(C)C)NC(=O)[C@H](CC(C)C)NC(=O)[C@H](CC(=O)O)NC(=O)[C@H](CCCNC(=N)N)NC1=O
B10: SP31 (peptide)
peptide: Ac-LGANDELISFKDEGEQEEKSSENSSAE[S5]DLA[S5]VKSSLV-NH2
modifications: staple 28-32
SMILES: CC[C@H](C)[C@H](NC(=O)[C@H](CC(C)C)NC(=O)[C@H](CCC(=O)O)NC(=O)[C@H](CC(=O)O)NC(=O)[C@H](CC(N)=O)NC(=O)[C@H](C)NC(=O)CNC(=O)[C@H](CC(C)C)NC(C)=O)C(=O)N[C@@H](CO)C(=O)N[C@@H](Cc1ccccc1)C(=O)N[C@@H](CCCCN)C(=O)N[C@@H](CC(=O)O)C(=O)N[C@@H](CCC(=O)O)C(=O)NCC(=O)N[C@@H](CCC(=O)O)C(=O)N[C@@H](CCC(N)=O)C(=O)N[C@@H](CCC(=O)O)C(=O)N[C@@H](CCC(=O)O)C(=O)N[C@@H](CCCCN)C(=O)N[C@@H](CO)C(=O)N[C@@H](CO)C(=O)N[C@@H](CCC(=O)O)C(=O)N[C@@H](CC(N)=O)C(=O)N[C@@H](CO)C(=O)N[C@@H](CO)C(=O)N[C@@H](C)C(=O)N[C@@H](CCC(=O)O)C(=O)N[C@@]1(C)CCCC=CCCC[C@@](C)(C(=O)N[C@H](C(=O)N[C@@H](CCCCN)C(=O)N[C@@H](CO)C(=O)N[C@@H](CO)C(=O)N[C@@H](CC(C)C)C(=O)N[C@H](C(N)=O)C(C)C)C(C)C)NC(=O)[C@H](C)NC(=O)[C@H](CC(C)C)NC(=O)[C@H](CC(=O)O)NC1=O

biological target: T1, C-terminally 6x Histidine-tagged …; experiment: competitive fluorescence polarization, FAM-labelled linear probe as competitor, His-tagged beta-catenin 134-668
Protocol: The following experiments are performed at room temperature unless otherwise noted. First, an assay buffer is prepared composed of 25 mM Tris-Hcl pH 7.5, 200 mM Sodium Chloride, and 5 mM CHAPS. Next, 1M DTT is added to assay buffer to a final concentration of 2 mM. […] Forty μl of this protein stock is added to all but six wells of a 96 well plate (which will serve as the free peptide and Blank). Test competitor peptides are diluted from 1 mM DMSO stocks to 2× working stocks in assay buffer. Further dilutions are made in assay buffer-DMSO as to maintain a constant DMSO concentration in all wells. The dilution is carried out such that the peptides have a working concentration range of 40 μM-0.7 μM (2×). As a benchmark, a linear, non-crosslinked peptide competitor is prepared as above but with a working concentration range of 13-0.7 μM. Fifty μl of the competitor 2× stocks are added to the 40 μl of protein solution previously transferred into the assay 96 well plate. Next, a 10× stock of the fluorescent probe is prepared. The probe is identical to the linear benchmark peptide except for the n-terminal conjugation of a FAM flourophore with Beta-Alanine spacer. A 1 mM DMSO stock of the probe is serially diluted to a final concentration of 25 nM (10×) and 10 μl of this stock is added to all wells except for those that will serve as the blank. The assay plate is stored in the dark and the reaction is allowed to run at room temperature for three hours. The reaction is then read on a Biotek Synergy 2 with the following settings: 100 ms delay, 40 measurements per well, with excitation filters of […], and emission filters of […]. Data is then analyzed in Graphpad Prism.

| Binder | IC50 [nM] |
| --- | --- |
| B1 | ≥ 100000 |
| B2 | 56 |
| Ac-LGANDELISFKDEGEQEEKSSENSSAERDLADVKSSLV-NH2 (Linear, not crosslinked) [SP14] | 95 |
| B3 | ≥ 100000 |
| B4 | ≥ 100000 |
| B5 | 42 |
| B6 | 158 |
| B7 | 158 |
| B8 | 223 |
| B9 | 98 |
| B10 | 248 |
